From paper PMC5641094, “A peptide antagonist of Prep1-p160 interaction improves ceramide-induced insulin resistance in skeletal muscle cells” (Oncotarget, 2017) come the findings set out here.

For data set [1], the system named is L6 cells. Briefly: FACS analysis of peptide uptake in L6 cells. It is filed as cell-based, rat. The settings on record: FITC-conjugated peptide, increasing concentrations, in the presence of liposomes, harvested 48h later, FACS FL-1, four experiments. On the procedure:
Figure 3 Design and in vitro effects of Prep1(54-72) peptide on Prep1/p160 association (A) Binding curves of Prep1(59-72) and Prep1(54-72) peptides to p160_20-160 by ELISA-like assays. Biotinylated peptides at several concentrations were added in triplicate to a 96-well plate coated with p160_20-160 (0.1μM). Experiments were performed at least twice and the average results fitted using GraphPad Prism. […] (B) Competition binding experiments. His6-tagged-p160_20-160 at 0.25μM was incubated with Prep1(59-72) and Prep1(54-72) at concentrations ranging between 0.001÷10μM and added to a 96-well plate coated with Prep1_45-155 (0.10μM). Results are the average of three independent experiments. (C) L6 cells were incubated with increasing concentrations of the fluorescein-conjugated peptide (FITC-Prep1(54-72)) and peptide uptake was detected by FACS analysis of fluorescein-labeled cells. […] Protein lysates were immunoprecipitated with Prep1 antibodies and analyzed by Western blot using antibodies for p160 or for Prep1. […] The blots were detected by ECL and autoradiography. […]
L6 cells were incubated with negative control (NC) and Prep1(54-72) peptides conjugated with fluorescein isothiocianate (FITC) at different concentrations and harvested 48h later. […] The samples were acquired by a BD LSRFortessa (BD Bioscience, San Jose, CA) and analyzed using BD FACS Diva Software.
For orientation: A flow cytometer gives signals particle by particle.

Data set [2] concerns L6 cells. In words: Cell toxicity in L6 cells. It is filed as cell-based, rat. The note with it: 10μM peptide in the presence of liposomes, data not shown.
The target of data set [3] is T1, His6-tagged p160(20-160) (UniProt Q7TPV4 20-160).
T1 construct: also called His6-p160(20-160); p160(20-160) domain
T1 sequence (looked up): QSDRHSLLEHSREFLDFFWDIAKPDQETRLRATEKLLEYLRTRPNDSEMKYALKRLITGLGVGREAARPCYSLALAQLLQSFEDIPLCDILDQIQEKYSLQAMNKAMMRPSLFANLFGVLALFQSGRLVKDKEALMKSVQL
In words: ELISA; competition ELISA: plate coated with Prep1(45-155) (0.1 uM); His6-tagged p160(20-160) at 0.25 uM pre-incubated with peptides at 0.001-10 uM; detection with anti-His HRP-conjugated antibody. The settings on record: both partners purified.

The target of data set [4] is Prep1 (Pbx regulating protein 1), endogenous in L6 cells (rat (endogenous in L6)).

“FITC-Prep1(54-72): fluorescein-conjugated Prep1(54-72) peptide”: the “peptide uptake into cells” value in data set [1] is listed as “dose-dependent manner”. Further, the cell toxicity entry in data set [2] was “without inducing any apparent cell toxicity”.

B1: Prep1(54-72) peptide (peptide)
peptide: Ac-KQAIYRHPLFPLLALLFEK-NH2
notes: Prep1 (Pbx regulating protein 1), stretch of the HR1 domain, named residues 54-72; Brought into L6 cells in the presence of liposomes for the cell experiments; source: synthetic peptide (Fmoc solid phase, RP-HPLC purified)
B1: the IC50 (commonly the concentration that inhibits the measured activity by half) in data set [3] turned out to be 200 nM.

B2: p160 myb binding protein, endogenous in L6 cells (natural protein)
chain: MAEMKSPTKAEPASPAEAPQGDRRSLLEHSREFLDFFWDIAKPDQETRLRATEKLLEYLRTRPSDSEMKYALKRLITGLGVGREAARPCYSLALAQLLQSFEDIQLCDILGQIQEKYNLQAMNKAMMRPTLFANLFGVLALFQSGRLVKDKEALMKCVRLLKILSHHYNHLQGQPVKALVDILSEVPESMFQEILPKVLKGDMKVILSSPKYLELFLLARQRVPAELESLVGSVDLFSEDNIPSLVNILKVAANSVKKEQKLPDVALNLLRLALQENKFERFWKEVLEEGLLKKPSYTSSYMCFRLLGASLPLLSDEQLQLVMRGDLIRHFGEHMVVSKSQNPLRFIPEISAYVGTFLEGCQDDPKRQFTVMVAFTAITNQGLPVMPTFWRVTRFLNTEALQNYVTWLRDMFLQPDLDSLVDFSTANQKRVQVASLNVPERTVFRLRKWIIHRLVSLVDHLHLEKDEAVVEQIARFCLFHAFFKTKKATPQIPETKQHFSFPLEDGNRGVIVSAFFSLLQTLSVKFRQTPDLAENGKPWTYRLVQLADMLLKHNRNVANVTPLTAQQRQAWDQMMSTLKELEAQSSETRAIAFQHLLLLVGLHLFKSPAESCDVLGDIQTCIKKSMEQNLRRSRSRAKASQEPVWVEVMVEILLSLLAQPSNLMRQVVRSVFGHVCSHLTPRGLQLILAVLNPETNEDEEDNVVVTDTDEKQLKHGEDADSDSEDSKNSESDVDSEDGEESEEEDRDKDVDPGFRQQLMEVLQAGNALGGEEEEEEELGDEAMMALDQNLASLFAEQKMRIQARHEEKNKLQKEKQLRRDFQIRALDLIEVLVTKQPEHPLILELLEPLLNIIQRSMRSRGSTKQEQDLLHKTARIFMHHLCRARHYCHEVEPGAEALHAQVERLVQQAGNQADASVALYYFNASLYLLRVLKGNTTKRYQDGQKLEGADIKSEPKDSEVQTTSCLDLDFVTRVYSASLESLLTKRNSPLTIPMFLDLFSRYPVICKNLLPIVVQHVAGSSRPRHQAQACLLLQKALSARELRVCFEDPEWEQLISQVLGKTTQTLQTLGEAQSKGEHQRELSILELLNTVFRIVNHEKLSVDLTAFLGMLQGKQQKLQQNLQQGNHSSGSSRLYDLYWQAMNLLGVQRPKSEKKNVKDIPSDSQSPISTKRKKKGFLPETKKRKKLKSEGTTSEKKAASQQDAVTEGAMPAATGKDQPPSTGKKRRKRVKANTPSQVNGVTVAKSPAPNNPTLSPSTPPAKTPKVQKKKEKLSQVNGSTPVSPVEPESKKHQKALSTKEVKRRSSQSALPKKRARLSLVSRSPSLLQSGIRKRRVARRRVQTP
For B2, in data set [4], the decrease in p160 protein level in C2cer-treated L6 cells incubated with Prep1(54-72), Western blot amounted to 25%.
